The values below come from patent publication US11957716B2 (Immatics Biotechnologies GmbH, priority 2021, dated 2024).

The target in assay [1] is HLA-B*44:05 (Homo sapiens, UniProt P01889, A223V/A65T/A93T/A95T/D201E/D98Y/E176V/E187L/E204Q/E69K/G107R/H137Y/K202T/L105A/L119I/N104T/N87E/Q56L/Q94N/R106L/R155S/R180D/S101N/S121R/S35A/S48T/T118I/V36M/W191S/Y91S). Description: MHC binding assay, UV-ligand exchange ELISA. The settings on record: peptide exchange yield, binding to HLA-B*44:05. On the technique in general: An ELISA detects its analyte on a solid surface through an enzyme-linked reagent.

Assay [2] deals with HLA-A*01:01, HLA-A*02:01, HLA-A*03:01, HLA-A*24:02, HLA-B*07:02, HLA-B*08:01 and HLA-B*44:02. Description: HLA alleles the peptides bind to (Table 7). In kind it is binding, human. The settings on record: allotype from the group HLA-A*01:01, HLA-A*02:01, HLA-A*03:01, HLA-A*24:02, HLA-B*07:02, HLA-B*08:01, HLA-B*44:02. From the text: However, due to similarities in binding pattern such as the relevant anchoring positions some peptides bind to more than one allele, such an overlap is most likely, but not limited to, HLA-A*01 binding peptides also binding to HLA-B*15, HLA-A*03 binding peptides also binding to HLA-A*11, HLA-B*07 binding peptides also binding to HLA-B*35 and HLA-B*51.

For assay [3], the target named is HLA-A*01:01 (Homo sapiens, UniProt P04439, A114D/A174V/A182V/D101N/D185E/E176A/E190D/L180R/Q94H/R68K/S129P/T187R/V100A/V91M/W191G). The assay can be described thus: MHC binding assay, UV-ligand exchange ELISA. The settings on record: peptide exchange yield, binding to HLA-A*01:01.
In assay [4] the target is HLA-B*08:01 (Homo sapiens, UniProt P01889, A93T/A95T/D138N/E176V/E187T/K202T/Q94N/R180D/S35A/V36M/Y33D/Y91F). Description: MHC binding assay, UV-ligand exchange ELISA. The settings on record: peptide exchange yield, binding to HLA-B*08:01.
The target of assay [5] is HLA-A*02:01 (Homo sapiens, UniProt P04439, D140Y/D185E/D98H/E176V/E277Q/G131W/G231S/I119V/I121R/I166T/I218V/L300P/L318F/N151K/N90K/P208A/P217A/Q86G/Q94H/R138H/R169H/T345S). The assay can be described thus: MHC binding assay, UV-ligand exchange ELISA. The following applies: peptide exchange yield, binding to HLA-A*02:01.

Consider “212 (WETRLHNLW; listed as Homo sapiens) [compound 212]”, for which, in assay [1], the Peptide exchange result is recorded as “++++ (75% = ++++)”. Still for that read-out and setting: next, “11 (TEIGTVIKLF; listed as Homo sapiens) [compound 11]”: “++++ (75% = ++++)”. Turning to “71 (LIDSLLLLL; listed as Homo sapiens) [compound 71]”, the “Binders (HLA alleles the peptides according to the invention bind to)” value (“Binders” below) in assay [2] was “HLA-A*01:01”. Further, in assay [3], the Peptide exchange entry is reported as “+++ (≥50% = +++)”. In the case of “32 (TAMTTLMAF; listed as Homo sapiens) [compound 32]”, the “Binders” value in assay [2] was “HLA-B*08:01”. Besides, the Peptide exchange result in assay [4] is listed as “+++ (≥50% = +++)”. For “139 (EEGRIITKW; listed as Homo sapiens) [compound 139]”, in assay [1], the Peptide exchange entry was “++++ (75% = ++++)”. Turning to “135 (SADTAELLL; listed as Homo sapiens) [compound 135]”, in assay [2], the “Binders” value was “HLA-A*01:01”. Also, the Peptide exchange result in assay [3] is “++ (≥20% = ++)”. As for “181 (FDLNIGSAY; listed as Homo sapiens) [compound 181]”, the Peptide exchange entry in assay [1] was “++++ (75% = ++++)”. On the same count and under the same terms, the same measure for “58 (REQLDGATL; listed as Homo sapiens) [compound 58]”: “++++ (75% = ++++)”.

“73 (NQKGLISL; listed as Homo sapiens) [compound 73]”: the “Binders” value in assay [2] is listed as “HLA-B*08:01”. For the same substance, the Peptide exchange result in assay [4] is “+++ (≥50% = +++)”. As for “95 (YAFRNQTL; listed as Homo sapiens) [compound 95]”, the “Binders” value in assay [2] was “HLA-B*08:01”. For the same substance, the Peptide exchange entry in assay [4] was “+++ (≥50% = +++)”.

For “83 (EAAPNIMHY; listed as Homo sapiens) [compound 83]”, the “Binders” value in assay [2] was “HLA-A*01:01”. Besides, the Peptide exchange entry in assay [3] is reported as “++ (≥20% = ++)”. As for “147 (VEAPHLPSF; listed as Homo sapiens) [compound 147]”, the Peptide exchange result in assay [1] was “++++ (75% = ++++)”.

For “136 (YSSEIWDLY; listed as Homo sapiens) [compound 136]”, the “Binders” value in assay [2] is on record as “HLA-A*01:01”. For the same substance, the Peptide exchange entry in assay [3] is on record as “++++ (≥75% = ++++)”. “122 (FTQKINSTW; listed as Homo sapiens) [compound 122]”: the “Binders” value in assay [2] is “HLA-A*01:01”. Besides, the Peptide exchange result in assay [3] was “++ (≥20% = ++)”. As for “84 (KEFAFLEHSL; listed as Homo sapiens) [compound 84]”, the Peptide exchange result in assay [1] is given as “++++ (75% = ++++)”. Regarding “26 (ETNTIEFIY; listed as Homo sapiens) [compound 26]”, the “Binders” value in assay [2] is listed as “HLA-A*01:01”. Also, in assay [3], the Peptide exchange result is reported as “++++ (≥75% = ++++)”. Regarding “98 (FSEIFQDFL; listed as Homo sapiens) [compound 98]”, the “Binders” value in assay [2] is on record as “HLA-A*01:01”. Also, the Peptide exchange result in assay [3] is listed as “+++ (≥50% = +++)”. The corresponding values for “65 (NSDLFYLLL; listed as Homo sapiens) [compound 65]” are “HLA-A*01:01” and “++++ (≥75% = ++++)”.

In the case of “23 (AETKQFWSA; listed as Homo sapiens) [compound 23]”, the Peptide exchange entry in assay [1] is recorded as “++++ (75% = ++++)”. Same read-out and setting: next, “117 (GEAAAARPV; listed as Homo sapiens) [compound 117]”: “+++ (50% = +++)”. For the substance “171 (NVSFEVSLLY; listed as Homo sapiens) [compound 171]”, in assay [2], the “Binders” value is given as “HLA-A*01:01”. The Peptide exchange entry in assay [3] is recorded as “++++ (≥75% = ++++)”. On to “36 (KEIEAQEAA; listed as Homo sapiens) [compound 36]”, for which the Peptide exchange result in assay [1] is given as “++++ (75% = ++++)”. On to “92 (LNFSDVFLY; listed as Homo sapiens) [compound 92]”, for which the “Binders” value in assay [2] is recorded as “HLA-A*01:01”. Further, in assay [3], the Peptide exchange result is reported as “++ (≥20% = ++)”. In the case of “99 (RADEEQASF; listed as Homo sapiens) [compound 99]”, in assay [2], the “Binders” value is on record as “HLA-A*01:01”. In addition, the Peptide exchange entry in assay [3] is given as “++ (≥20% = ++)”. Consider “48 (TEMSVSALY; listed as Homo sapiens) [compound 48]”, for which the Peptide exchange entry in assay [1] is given as “++++ (75% = ++++)”.

In the case of “56 (DVDIHKDLY; listed as Homo sapiens) [compound 56]”, the “Binders” value in assay [2] is on record as “HLA-A*01:01”. The Peptide exchange entry in assay [3] is “++++ (≥75% = ++++)”. As to “86 (VANDRLSFL; listed as Homo sapiens) [compound 86]”, the “Binders” value in assay [2] is “HLA-B*08:01”. Further, the Peptide exchange result in assay [4] is on record as “+++ (≥50% = +++)”. Regarding “27 (SQAKQITIW; listed as Homo sapiens) [compound 27]”, in assay [1], the Peptide exchange result is “++++ (75% = ++++)”.

In the case of “131 (TILAKQNVL; listed as Homo sapiens) [compound 131]”, the “Binders” value in assay [2] is “HLA-B*08:01”. The Peptide exchange entry in assay [4] is on record as “+++ (≥50% = +++)”. Take “206 (VEGVHFVQLL; listed as Homo sapiens) [compound 206]”: in assay [1], the Peptide exchange entry is given as “++++ (75% = ++++)”. As for “60 (VSPDEVLALW; listed as Homo sapiens) [compound 60]”, the “Binders” value in assay [2] was “HLA-A*01:01”. In addition, the Peptide exchange entry in assay [3] is “++ (≥20% = ++)”. Consider “141 (REVAGASAL; listed as Homo sapiens) [compound 141]”, for which the Peptide exchange result in assay [1] is recorded as “+++ (50% = +++)”.

Turning to “5 (METADRPEW; listed as Homo sapiens) [compound 5]”, the Peptide exchange result in assay [1] is on record as “++++ (75% = ++++)”.

Consider “68 (TVDKGELLY; listed as Homo sapiens) [compound 68]”, for which the “Binders” value in assay [2] is reported as “HLA-A*01:01”. Moreover, in assay [3], the Peptide exchange entry is “++++ (≥75% = ++++)”.

Take “200 (GLLGTLRVL; listed as Homo sapiens) [compound 200]”: in assay [2], the “Binders” value is “HLA-A*02:01”. For the same substance, the Peptide exchange result in assay [5] is recorded as “++++ (≥75% = ++++)”. For the substance “196 (NSENLLVY; listed as Homo sapiens) [compound 196]”, the “Binders” value in assay [2] was “HLA-A*01:01”. Also, the Peptide exchange entry in assay [3] is “+++ (≥50% = +++)”.

As for “42 (LLSRGILIL; listed as Homo sapiens) [compound 42]”, the “Binders” value in assay [2] was “HLA-A*02:01”. Besides, the Peptide exchange result in assay [5] was “++++ (≥75% = ++++)”.

Take “105 (LVFESVVAA; listed as Homo sapiens) [compound 105]”: the “Binders” value in assay [2] is “HLA-A*02:01”. The Peptide exchange result in assay [5] is reported as “++++ (≥75% = ++++)”. For “142 (YMLEMDNSMKI; listed as Homo sapiens) [compound 142]”, in that order: “HLA-A*02:01” and “++++ (≥75% = ++++)”. With “54 (ASSPVILLL; listed as Homo sapiens) [compound 54]”, the “Binders” value in assay [2] was “HLA-A*01:01”. In assay [3], the Peptide exchange entry is reported as “++ (≥20% = ++)”. For the substance “121 (ILVTAWKGV; listed as Homo sapiens) [compound 121]”, in assay [2], the “Binders” value is on record as “HLA-A*02:01”. In assay [5], the Peptide exchange result was “+++ (≥50% = +++)”. Take “168 (AEGPDHHSL; listed as Homo sapiens) [compound 168]”: the Peptide exchange entry in assay [1] is listed as “++++ (75% = ++++)”. Turning to “39 (RELGVGIAL; listed as Homo sapiens) [compound 39]”, the Peptide exchange entry in assay [1] is listed as “++++ (75% = ++++)”. Turning to “97 (ALIVLHLSL; listed as Homo sapiens) [compound 97]”, the “Binders” value in assay [2] is “HLA-A*02:01”. Moreover, in assay [5], the Peptide exchange result is “++ (≥20% = ++)”. For “118 (RLLRLIPIL; listed as Homo sapiens) [compound 118]”, in that order: “HLA-A*02:01” and “++++ (≥75% = ++++)”. Regarding “12 (RLQEGLAAL; listed as Homo sapiens) [compound 12]”, the “Binders” value in assay [2] is on record as “HLA-A*02:01”. For the same substance, in assay [5], the Peptide exchange entry was “++++ (≥75% = ++++)”. Consider “145 (HLFSVLSAI; listed as Homo sapiens) [compound 145]”, for which the “Binders” value in assay [2] is “HLA-A*02:01”. The Peptide exchange entry in assay [5] is reported as “++++ (≥75% = ++++)”.
